The supplement of paper PMC9732359
± gives the uncertainty stated by the source.

Experiment: protein stability index of a GFP-peptide fusion (yeast GPS) (PSI 1-4); higher = more stable; sorted into four equal gates, so the index is relative within each strain
Outline: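 Mid-log yeast cultures in leucine-free medium, carrying a pooled plasmid library, were sorted into four equal gates by their GFP/Cherry fluorescence ratio. Each plasmid expressed Cherry along with GFP fused upstream of a tiled 17-residue yeast protein peptide. Plasmids recovered from each gate were PCR-amplified and Illumina-sequenced, with reads assigned to strains by barcodes. The protein stability index was obtained by summing each gate's read frequency weighted by its gate number.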

Sequence	protein stability index (doa10∆)	protein stability index (pdr5∆)	protein stability index (san1∆)	protein stability index (ubr1∆)
EDDDNEQHEEKAAEGEE [QCR6]	3.06 ± 0.083	2.95 ± 0.12	2.95 ± 0.24	3.2 ± 0.072
EDDLVGVVQMVTDNKTP [TAF14]	2.72 ± 0.15	2.52 ± 0.19	2.84 ± 0.091	
EDEAALAKLVSTIDANF [RPL8A]	2.91 ± 0.065	3.02 ± 0.068	2.66 ± 0.062	2.85 ± 0.05
EDEENSDVLLFQLPTTC [RGR1]	2.63 ± 0.044	2.27 ± 0.035	2.63 ± 0.041	2.35 ± 0.024
EDEGEERESSGAKDAEK [RPC17]	2.93 ± 0.18	3.38 ± 0.28		3.65 ± 0.16
EDEGTLNVAEIITSGRD [ARP9]	3.27 ± 0.22	3.21 ± 0.15	3.24 ± 0.079	3.29 ± 0.15
EDEVKVEGPKFTIDAKP [YLR335W/NUP2]	3.54 ± 0.15	3.52 ± 0.2	3.45 ± 0.071	
EDFQVLRLGRGINPNTF [YDL088C/ASM4]	3.29 ± 0.11	3.45 ± 0.19	3.06 ± 0.11	3.52 ± 0.064
EDFRIQFKTTIKDTAND [UBP6]	2.49 ± 0.067	2.47 ± 0.07	2.16 ± 0.063	2.43 ± 0.054
EDHMLKKIENTMLENIT [RPO21]	2.73 ± 0.1	2.78 ± 0.086	2.92 ± 0.077	2.85 ± 0.083
EDIIANYASVYPVVEVE [RRP43]	2.47 ± 0.098	2.77 ± 0.092	2.85 ± 0.14	2.72 ± 0.079
EDIMVHYDNTTRNSLGN [RPO21]	3.1 ± 0.09	3.1 ± 0.095	3.35 ± 0.041	3.06 ± 0.075
EDKRKVRSAEYYAKKRA [RPL16B]	3.31 ± 0.1	3.38 ± 0.089	3.36 ± 0.071	3.46 ± 0.055
EDKVFASKGRTKIDMPI [BRN1]			2.59 ± 0.26	
EDLVDRIENPEKYAAAA [RPP0]	3.05 ± 0.078	3.28 ± 0.099	2.93 ± 0.054	3.09 ± 0.057
EDPDQEECSGRRWNKLC [YGL100W/SEH1]	2.24 ± 0.07	2.16 ± 0.083	1.88 ± 0.1	2.27 ± 0.057
EDTELYQELIKNGALVS [YJL039C/NUP192]		2.77 ± 0.087	3.21 ± 0.11	2.57 ± 0.069
EDTNLAAIHAKRVTIQK [HHT1]	2.88 ± 0.078	3.04 ± 0.099	2.97 ± 0.059	2.92 ± 0.056
EDVTPVPSDSTRKKGGR [RPS14A]	3.1 ± 0.13	3.24 ± 0.079	3.41 ± 0.065	3.45 ± 0.075
EEALNFDISMADLSSSE [SSN2]	2.85 ± 0.06	2.95 ± 0.053	3.05 ± 0.07	2.6 ± 0.049
EECSGRRWNKLCTLNDS [YGL100W/SEH1]	2.99 ± 0.051	3.17 ± 0.053	2.82 ± 0.05	2.78 ± 0.041
EEEDAKNPLFSYVEPVL [RPL31A]	2.88 ± 0.042	2.63 ± 0.036	2.12 ± 0.047	2.21 ± 0.026
EEELFQEMIEISNVIKP [SRP54]	3.04 ± 0.077	3.28 ± 0.066	3.34 ± 0.064	3.37 ± 0.13
EEEVDIDMDKLNTVLIA [RRP43]	3.35 ± 0.091	3.32 ± 0.095	3.02 ± 0.077	2.89 ± 0.068
EEFRNLAALNVWYGLSD [SSN2]	3.37 ± 0.14	2.8 ± 0.13	2.39 ± 0.12	2.94 ± 0.074
EEGRAIPGEYVTYALSG [RPS21A]			2.81 ± 0.19	2.96 ± 0.16
EEGYSGVEVRVTPTKTE [RPS3]	2.18 ± 0.16	3.15 ± 0.11	2.88 ± 0.091	3.11 ± 0.08

Sequence	protein stability index (doa10∆)	protein stability index (pdr5∆)	protein stability index (san1∆)	protein stability index (ubr1∆)
EELDITPLFPIDRNSTI [IRR1]	2.48 ± 0.11	2.9 ± 0.14	2.9 ± 0.095	2.8 ± 0.1
EENDLQQKLNTRMQRGH [REC8]	3.17 ± 0.12	3.14 ± 0.078	3.2 ± 0.22	3.4 ± 0.048
EENPIMQTALRRLPEDE [QCR7]	3.45 ± 0.28	3.52 ± 0.28		3.39 ± 0.18
EERKRWAMQGISYLQEV [PCI8]	3.58 ± 0.19	3.15 ± 0.13	3.12 ± 0.15	3.23 ± 0.11
EESSTGKSTADVKSSDS [YJL041W/NSP1]		3.35 ± 0.19		
EEWLNTKDPDEQQLFEI [CSN9]	3.06 ± 0.11	3.16 ± 0.12	3.24 ± 0.051	3.15 ± 0.075
EEYLDANVFRLENQKDL [MTW1]	3.4 ± 0.081	3.38 ± 0.087	3.28 ± 0.057	3.3 ± 0.044
EFFNTLRKSRETVKLPR [RRI2]		3.55 ± 0.18	3.02 ± 0.15	
EFIPPDPTKVTEFEFYL [SSN8]	3.04 ± 0.055	2.85 ± 0.039	2.88 ± 0.051	2.68 ± 0.031
EFIRCGCLIKNLPRTKA [RMP1]	2.17 ± 0.087	2.82 ± 0.1	2.3 ± 0.11	2.53 ± 0.077
EFLYPHLNFPNVKFLRI [SNF12]	2.21 ± 0.19	2.67 ± 0.27		3.15 ± 0.1
EFVNGGKVVKNVLLLDS [RRP46]	2.42 ± 0.17	2.02 ± 0.069	1.34 ± 0.2	1.9 ± 0.11
EGDQAEVIFSFEGTPPF [YMR129W/POM152]	3.29 ± 0.17	3.39 ± 0.17	2.52 ± 0.21	3.36 ± 0.1
EGNVPQTLAPVPYETFI [RPL21A]	3.06 ± 0.066	2.74 ± 0.056	3.08 ± 0.052	2.78 ± 0.056
EHDLLRQIRPIMERIKS [ITC1]	1.37 ± 0.28	2.3 ± 0.27		
EHGLHAPAYAWSHNGPF [CYT1]	2.83 ± 0.11	3 ± 0.073	2.52 ± 0.087	2.87 ± 0.054
EHVILGNGELYMDCLLY [SNU114]	2.31 ± 0.053	2.73 ± 0.073	2.76 ± 0.086	2.67 ± 0.063
EIAFHLTLIFYDVLHDV [YML103C/NUP188]	1.26 ± 0.072	1.47 ± 0.055	1.63 ± 0.17	1.99 ± 0.086
EIDHVEYYVMMDFANLW [SRB8]	2.98 ± 0.067	2.69 ± 0.054	2.81 ± 0.056	2.92 ± 0.036
EIFAFGNIKDLPENIIL [CSN9]	2.7 ± 0.066	2.92 ± 0.056	2.8 ± 0.043	2.93 ± 0.042
EIFKKGYIKNNKKIYQW [POP6]	3.46 ± 0.24			
EIGPSPTLAGMAQRTLK [FAS2]	2.392 ± 0.02	2.559 ± 0.021	2.546 ± 0.021	2.45 ± 0.015
EIIGGGSKSASKQTPQP [ISW2]	2.95 ± 0.081	3.08 ± 0.092	2.97 ± 0.068	2.96 ± 0.06
EIILDFLQDKVQIKDVN [CSI1]	3.12 ± 0.086	2.83 ± 0.055	2.36 ± 0.076	3.17 ± 0.051
EIKGASETPLQKTVNLK [RPN4]	3 ± 0.12	3.42 ± 0.13	3.05 ± 0.1	3.14 ± 0.056
EIKKWTAVAFWSWDIAV [HRT1]	1.23 ± 0.076	1.7 ± 0.073	1.65 ± 0.11	1.36 ± 0.044
